Source: patent US20190324032A1 (University of California, published 2019)

Columns and labels:
[1] = biological target: T1, CRY1 PHR R109Q (mouse, UniProt P97784 1-491); assay: size exclusion chromatography
T1 construct: also called CRY1 PHR R109Q mutant; not shown: N-terminal His6 tag / vector residues
T1 sequence: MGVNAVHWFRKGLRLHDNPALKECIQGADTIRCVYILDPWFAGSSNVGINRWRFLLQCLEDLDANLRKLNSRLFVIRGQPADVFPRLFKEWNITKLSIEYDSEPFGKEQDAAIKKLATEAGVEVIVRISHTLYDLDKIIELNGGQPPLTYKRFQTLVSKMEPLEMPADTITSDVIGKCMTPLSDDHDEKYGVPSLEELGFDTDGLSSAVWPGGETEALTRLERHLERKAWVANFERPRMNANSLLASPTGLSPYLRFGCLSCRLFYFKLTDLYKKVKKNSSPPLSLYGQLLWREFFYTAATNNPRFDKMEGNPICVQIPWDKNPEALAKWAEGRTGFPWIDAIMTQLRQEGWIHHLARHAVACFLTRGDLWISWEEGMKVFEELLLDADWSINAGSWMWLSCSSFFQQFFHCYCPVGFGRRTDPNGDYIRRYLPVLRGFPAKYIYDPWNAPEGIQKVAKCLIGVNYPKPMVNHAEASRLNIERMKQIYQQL
Description: (§1) For analysis of complex formation by size-exclusion chromatography (SEC), purified proteins were injected on a Superdex 200 10/300 GL or Superdex 75 10/300 GL analytical column at 10-50 μM (˜250 μL, 1:1 molar ratio) in 20 mM HEPES pH 7.5, 125 mM NaCl, 5% glycerol and 2 mM TCEP. Proteins were incubated for ˜30 min. or overnight and analyzed by SEC. All size-exclusion columns were calibrated with a low-molecular-weight gel filtration standards kit (GE Healthcare Life Sciences). The content of each peak was evaluated by SDS-PAGE and Coomassie staining.

[2] = biological target: T2, CRY1 PHR P39A (mouse, UniProt P97784 1-491); assay: size exclusion chromatography
T2 construct: also called CRY1 PHR P39A mutant; not shown: N-terminal His6 tag / vector residues
T2 sequence: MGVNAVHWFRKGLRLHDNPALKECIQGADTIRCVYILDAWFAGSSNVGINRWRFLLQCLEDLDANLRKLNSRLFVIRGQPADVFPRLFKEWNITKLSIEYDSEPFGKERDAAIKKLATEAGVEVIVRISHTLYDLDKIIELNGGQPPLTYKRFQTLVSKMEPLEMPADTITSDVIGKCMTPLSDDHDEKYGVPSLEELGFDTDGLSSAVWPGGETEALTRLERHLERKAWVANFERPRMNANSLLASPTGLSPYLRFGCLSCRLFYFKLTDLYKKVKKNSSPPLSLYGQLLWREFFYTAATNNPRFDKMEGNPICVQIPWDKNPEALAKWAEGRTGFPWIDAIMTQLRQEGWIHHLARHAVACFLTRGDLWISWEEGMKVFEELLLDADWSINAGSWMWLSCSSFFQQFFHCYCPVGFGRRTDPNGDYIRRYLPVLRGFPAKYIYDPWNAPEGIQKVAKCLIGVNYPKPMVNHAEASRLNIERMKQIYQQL
Description: as §1

[3] = biological target: T3, His6-tagged mouse CRY1 PHR (photolyase homology region, amino acids 1-491) (mouse, UniProt P97784 1-491); assay: SEC of CRY1 PHR with preformed CLOCK:BMAL1 PAS-B dimer
T3 construct: Expressed in Sf9 cells; also called wild-type CRY1 PHR; not shown: N-terminal His6 tag / vector residues
T3 sequence: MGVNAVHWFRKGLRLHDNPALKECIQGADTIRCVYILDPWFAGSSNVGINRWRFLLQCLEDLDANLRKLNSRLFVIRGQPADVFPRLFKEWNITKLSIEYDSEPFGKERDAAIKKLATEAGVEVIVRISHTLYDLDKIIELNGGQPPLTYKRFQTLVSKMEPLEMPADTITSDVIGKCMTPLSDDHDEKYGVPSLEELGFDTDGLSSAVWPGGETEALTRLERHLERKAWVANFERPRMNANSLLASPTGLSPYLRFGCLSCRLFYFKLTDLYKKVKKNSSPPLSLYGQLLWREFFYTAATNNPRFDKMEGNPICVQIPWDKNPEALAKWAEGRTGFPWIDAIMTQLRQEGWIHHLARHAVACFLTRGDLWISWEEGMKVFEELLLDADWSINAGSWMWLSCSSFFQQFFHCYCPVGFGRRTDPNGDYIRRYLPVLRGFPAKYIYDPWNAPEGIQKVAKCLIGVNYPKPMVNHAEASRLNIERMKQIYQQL
Description: as §1

[4] = biological target: T3, His6-tagged mouse CRY1 PHR (photolyase …); assay: size exclusion chromatography
Description: as §1

[5] = biological target: mouse BMAL1 PAS-B (residues 329-441) (mouse, UniProt Q9WTL8 329-441); assay: size exclusion chromatography on Superdex 75
Sequence of mouse BMAL1 PAS-B (residues 329-441) (Q9WTL8 329-441): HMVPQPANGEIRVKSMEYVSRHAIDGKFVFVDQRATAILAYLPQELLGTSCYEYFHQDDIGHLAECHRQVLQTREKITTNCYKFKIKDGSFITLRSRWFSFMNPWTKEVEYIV
Description: as §1

[6] = biological target: T3, His6-tagged mouse CRY1 PHR (photolyase …); assay: GST pull-down
Description: Soluble proteins were purified using GS4B resin (GE Healthcare). GST-tagged proteins were eluted with 10 mM glutathione and peak elution was desalted into 20 mM HEPES pH 7.5, 125 mM NaCl, 5% glycerol and 2 mM TCEP. […] After rotation at 4° C. overnight, reactions were washed 3 times with the above buffer and eluted with 6× SDS. Samples were boiled for ˜5 min. and loaded on an SDS-PAGE gel for visualization by Coomassie stain.

[7] = biological target: T4, CLOCK PAS-B domain (residues 261-395) site-specifically labeled with FAM at its N-terminus (human, UniProt O15516 261-395, FAM (fluorescein) at the N-terminus, attached with Sortase A from FAM-LPETGG onto the N-terminal glycine); assay: fluorescence polarization
T4 construct: Sortase ligation leaves residues of the FAM-LPETGG peptide in front of the N-terminal glycine; also called labeled CLOCK PAS-B; CLOCK PAS-B probe
T4 sequence: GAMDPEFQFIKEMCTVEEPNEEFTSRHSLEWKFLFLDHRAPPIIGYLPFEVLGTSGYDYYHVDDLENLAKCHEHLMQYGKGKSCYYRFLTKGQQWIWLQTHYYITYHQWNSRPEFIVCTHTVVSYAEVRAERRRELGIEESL

B1: mouse CLOCK PAS-B (residues 261-395) (other)
chain: QFIKEMCTVEEPNEEFTSRHSLEWKFLFLDHRAPPIIGYLPFEVLGTSGYDYYHVDDLENLAKCHEHLMQYGKGKSCYYRFLTKGQQWIWLQTHYYITYHQWNSRPEFIVCTHTVVSYAEVRAERRRELGIEESL
notes: also called CLOCK PAS-B domain; CLOCK PAS-B WT
B1: no binding (tested: 10-50 µM, 1:1 molar ratio) [1]; no binding (tested: 10-50 µM, 1:1 molar ratio) [2]; binds [3].

B2: CLOCK PAS-B H360Y (other)
chain: QFIKEMCTVEEPNEEFTSRHSLEWKFLFLDHRAPPIIGYLPFEVLGTSGYDYYHVDDLENLAKCHEHLMQYGKGKSCYYRFLTKGQQWIWLQTHYYITYYQWNSRPEFIVCTHTVVSYAEVRAERRRELGIEESL
notes: also called CLOCK PAS-B H360Y mutant
B2: no binding (tested: 10-50 µM, 1:1 molar ratio) [4].

B3: CLOCK PAS-B V315R (other)
chain: QFIKEMCTVEEPNEEFTSRHSLEWKFLFLDHRAPPIIGYLPFEVLGTSGYDYYHRDDLENLAKCHEHLMQYGKGKSCYYRFLTKGQQWIWLQTHYYITYHQWNSRPEFIVCTHTVVSYAEVRAERRRELGIEESL
notes: also called CLOCK PAS-B V315R mutant
B3: no binding (tested: incubated 1:1) [5].

B4: GST-CLOCK PAS-B W362A (other, not shown: a dimerising Fc or GST; small tags and cut ends)
chain: QFIKEMCTVEEPNEEFTSRHSLEWKFLFLDHRAPPIIGYLPFEVLGTSGYDYYHVDDLENLAKCHEHLMQYGKGKSCYYRFLTKGQQWIWLQTHYYITYHQANSRPEFIVCTHTVVSYAEVRAERRRELGIEESL
B4: no binding [6].

B5: CRY1 PHR (residues 1-491) after cleavage of the His6 tag, with residual vector sequence (Example 6) (other)
chain: GAMDPEFMGVNAVHWFRKGLRLHDNPALKECIQGADTIRCVYILDPWFAGSSNVGINRWRFLLQCLEDLDANLRKLNSRLFVIRGQPADVFPRLFKEWNITKLSIEYDSEPFGKERDAAIKKLATEAGVEVIVRISHTLYDLDKIIELNGGQPPLTYKRFQTLVSKMEPLEMPADTITSDVIGKCMTPLSDDHDEKYGVPSLEELGFDTDGLSSAVWPGGETEALTRLERHLERKAWVANFERPRMNANSLLASPTGLSPYLRFGCLSCRLFYFKLTDLYKKVKKNSSPPLSLYGQLLWREFFYTAATNNPRFDKMEGNPICVQIPWDKNPEALAKWAEGRTGFPWIDAIMTQLRQEGWIHHLARHAVACFLTRGDLWISWEEGMKVFEELLLDADWSINAGSWMWLSCSSFFQQFFHCYCPVGFGRRTDPNGDYIRRYLPVLRGFPAKYIYDPWNAPEGIQKVAKCLIGVNYPKPMVNHAEASRLNIERMKQIYQQL
B5: binds [7].
